Experiments:
[1] = molecular target: T1, human FcRn (recombinant, Example 10) (human, UniProt P55899 24-297; P61769 21-119, limits assumed); assay: SPR, recombinant FcRn immobilised on CM5, SCK/Two state reaction
T1 construct: also called recombinant FcRn proteins

[2] = molecular target: T2, Human NKp46 recombinant proteins (human, UniProt O76036 22-258, limits assumed); assay: SPR (Biacore T100), antibody captured on Protein-A chip, recombinant human NKp46 injected (6.25-400 nM), 1:1 kinetic model
T2 construct: also called recombinant human NKp46
T2 sequence (O76036 22-258 limits assumed): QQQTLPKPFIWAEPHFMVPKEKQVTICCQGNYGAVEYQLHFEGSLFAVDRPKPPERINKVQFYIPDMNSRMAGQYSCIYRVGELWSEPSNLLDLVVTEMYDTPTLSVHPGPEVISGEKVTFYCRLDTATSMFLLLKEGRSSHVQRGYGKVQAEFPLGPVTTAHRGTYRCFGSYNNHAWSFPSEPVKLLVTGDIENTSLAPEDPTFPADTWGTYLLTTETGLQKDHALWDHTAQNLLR
Method: SPR measurements were performed on a Biacore T100 apparatus (Biacore GE Healthcare) at 25° C. In all Biacore experiments HBS-EP+(Biacore GE Healthcare) and NaOH 10 mM served as running buffer and regeneration buffer respectively. Sensorgrams were analyzed with Biacore T100 Evaluation software. Protein-A was purchase from (GE Healthcare). Human NKp46 recombinant proteins were cloned, produced and purified at Innate Pharma.
Protein-A proteins were immobilized covalently to carboxyl groups in the dextran layer on a Sensor Chip CM5. The chip surface was activated with EDC/NHS (N-ethyl-N′-(3-dimethylaminopropyl) carbodiimidehydrochloride and N-hydroxysuccinimide (Biacore GE Healthcare)). Protein-A was diluted to 10 μg/ml in coupling buffer (10 mM acetate, pH 5.6) and injected until the appropriate immobilization level was reached (i.e. 2000 RU). Deactivation of the remaining activated groups was performed using 100 mM ethanolamine pH 8 (Biacore GE Healthcare).
Monovalent affinity study was done following a regular Capture-Kinetic protocol recommended by the manufacturer (Biacore GE Healthcare kinetic wizard). Seven serial dilutions of human NKp46 recombinant proteins, ranging from 6.25 to 400 nM were sequentially injected over the captured Bi-Specific antibodies and allowed to dissociate for 10 min before regeneration. The entire sensorgram sets were fitted using the 1:1 kinetic binding model.

T1 sequence (P55899 24-297 limits assumed, form in doubt, chain 1 of 2): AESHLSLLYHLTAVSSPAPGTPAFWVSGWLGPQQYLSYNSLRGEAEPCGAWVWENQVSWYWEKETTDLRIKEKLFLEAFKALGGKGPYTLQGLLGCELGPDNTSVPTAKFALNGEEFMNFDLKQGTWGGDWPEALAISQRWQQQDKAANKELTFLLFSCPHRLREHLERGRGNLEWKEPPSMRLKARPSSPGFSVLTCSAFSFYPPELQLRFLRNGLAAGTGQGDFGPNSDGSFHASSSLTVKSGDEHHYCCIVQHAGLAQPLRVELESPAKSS
T1 sequence (P61769 21-119 limits assumed, form in doubt, chain 2 of 2): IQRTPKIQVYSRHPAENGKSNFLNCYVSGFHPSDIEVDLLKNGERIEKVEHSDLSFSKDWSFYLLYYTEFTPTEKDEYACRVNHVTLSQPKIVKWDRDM

| Binder | Kd [1] | Kd [2] | koff [2] | kon [2] |
| --- | --- | --- | --- | --- |
| CD19-F5-NKp46-3 (bispecific antibody, human IgG1, kappa, Heterotrimer with dimeric Fc domain; also called Format 5 (F5)) chain 1: not shown chain 2: not shown chain 3: DIVMTQSPATLSVTPGDRVSLSCRASQSISDYLHWYQQKSHESPRLLIKYASQSISGIPSRFSGSGSGSDFTLSINSVEPEDVGVYYCQNGHSFPLTFGAGTKLELKASTKGPSVFPLAPSSKSTSGGTAALGCLVKDYFPEPVTVSWNSGALTSGVHTFPAVLQSSGLYSLSSVVTVPSSSLGTQTYICNVNHKPSNTKVDKRVEPKSCDKTH | 2.6 nM | 67 nM | 0.0051 s⁻¹ | 75600 M⁻¹ s⁻¹ |
| CD19-F6-NKp46-3 (bispecific antibody, human IgG1, kappa, also called Format 6 (F6)) chain 1: not shown chain 2: not shown chain 3: DIVMTQSPATLSVTPGDRVSLSCRASQSISDYLHWYQQKSHESPRLLIKYASQSISGIPSRFSGSGSGSDFTLSINSVEPEDVGVYYCQNGHSFPLTFGAGTKLELKASTKGPSVFPLAPSSKSTSGGTAALGCLVKDYFPEPVTVSWNSGALTSGVHTFPAVLQSSGLYSLSSVVTVPSSSLGTQTYICNVNHKPSNTKVDKRVEPKSCDKTH | 6 nM | 63 nM | 0.00503 s⁻¹ | 79300 M⁻¹ s⁻¹ |

— patent US20170210802A1 (INNATE PHARMA, published 2017)
